Test results as given in article PMC3875647 (Worm, 2013).

B1: MBP-AA-SAS-5 aa82-260 (domain or fragment, C. elegans, UniProt Q20010 82-260, looked up)
chain: HPALRQKTVAFGKTVNVSQTVEGTSRNSKKVLASTMSAQNTTTTEEQAAENWRDAMKTELQTIRTEIQEETARRQEELNAQNLVKMQELMSNFFQKITIPKQQAIEPVEKDKENFHESPRQSRQQKPASKIASAREVIKRDGVIPPEALTIIEQRLRSDPMFRQQIDNVLADAECDANR
B2: MBP-AA-SAS5-NTD (SAS-5 residues 1–260 fused to MBP with a two-alanine linker) (domain or fragment, C. elegans, UniProt Q20010 1-260, looked up)
chain: MNNYDDLPCSIYFKKPTVQEFVDQPRVFEDSEVPAFQEVLQLPQERTKPPVPSTQPIVAAVEVAKKKSCLSAPKPRKEPPSHPALRQKTVAFGKTVNVSQTVEGTSRNSKKVLASTMSAQNTTTTEEQAAENWRDAMKTELQTIRTEIQEETARRQEELNAQNLVKMQELMSNFFQKITIPKQQAIEPVEKDKENFHESPRQSRQQKPASKIASAREVIKRDGVIPPEALTIIEQRLRSDPMFRQQIDNVLADAECDANR

Target: the molecule itself
Assay: SEC-MALS

Protein	stoichiometry N
B1	4
B2	4
